# B1: Cdc34, P49427 1-236 (enzyme)
# chain: MARPLVPSSQKALLLELKGLQEEPVEGFRVTLVDEGDLYNWEVAIFGPPNTYYEGGYFKARLKFPIDYPYSPPAFRFLTKMWHPNIYETGDVCISILHPPVDDPQSGELPSERWNPTQNVRTILLSVISLLNEPNTFSPANVDASVMYRKWKESKGKDREYTDIIRKQVLGTKVDAERDGVKVPTTLAEYCVKTKAPAPDEGSDLFYDDYYEDGEVEEEADSCFGDDEDDSGTEES
# Tests used:
# Cul1 (CFP)–Rbx1 (human) = Cul1 (CFP)–Rbx1 (human) (UniProt Q13616); assay: FRET or BRET
# [1] = biological target: Nedd8 Cul1 (CFP)–Rbx1 (quantitatively neddylated) (UniProt Q13616); assay: FRET or BRET
# [2] = biological target: SCF^Skp2 (unmodified) (human), Q13616
Molecule,Kd (Cul1 (CFP)–Rbx1 (human)) [nM],fold lowering of Kd against unmodified Cul1 (CFP)–Rbx1 [1] [fold],"Km for Cdc34 in ubiquitination of p27-Cdk2-CycE (multi-turnover, varying Cdc34) [2] [µM]"
LG-labeled Cdc34 (from UniProt P49427 1-236) (enzyme),82,3,–
B1,–,–,6.1

# Source: PMC2644375
